This is an account of results in patent US20150344570A1 (published 2015).

The target of this test is T1, FcγRIIa R (FcγRIIa, allotype with Arg at position 131), extracellular domain with C-terminal His tag (human, UniProt P12318 34-217).
T1 construct: extracellular domain; also called FcγRIIa R type; 2aR
T1 sequence (looked up): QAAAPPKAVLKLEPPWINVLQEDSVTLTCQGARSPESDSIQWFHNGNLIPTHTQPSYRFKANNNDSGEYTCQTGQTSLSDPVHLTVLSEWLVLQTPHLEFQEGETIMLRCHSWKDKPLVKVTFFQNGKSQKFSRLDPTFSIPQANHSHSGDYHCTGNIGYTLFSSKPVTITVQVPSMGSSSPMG
In words: SPR (Biacore), antibody captured on antigen peptide chip, FcγR as analyte; relative binding. On the technique in general: SPR reads the build-up and loss of mass on a sensor chip optically.

B1: GpH7-B3 variant T335_02A/GpL16-k0 (antibody, human IgG1, kappa)
heavy: not shown
light: DIVMTQSPLSLPVTPGEPASISCQASESLVHSNRNTYLHWYLQKPGQSPQLLIYKVSNRFSGVPDRFSGSGSGTDFTLKISRVEAEDVGVYYCSQNTHVPPTFGQGTKVEIERTVAAPSVFIFPPSDEQLKSGTASVVCLLNNFYPREAKVQWKVDNALQSGNSQESVTEQDSKDSTYSLSSTLTLSKADYEKHKVYACEVTHQGLSSPVTKSFNRGEC
notes: also called Ho Ab
As for B1, the Ho/Con_2aR is 102 % of GpH7-B3/GpL16-k0 (=100).

B2: GpH7-B3 variant T335_19Q/GpL16-k0 (antibody, human IgG1, kappa)
heavy: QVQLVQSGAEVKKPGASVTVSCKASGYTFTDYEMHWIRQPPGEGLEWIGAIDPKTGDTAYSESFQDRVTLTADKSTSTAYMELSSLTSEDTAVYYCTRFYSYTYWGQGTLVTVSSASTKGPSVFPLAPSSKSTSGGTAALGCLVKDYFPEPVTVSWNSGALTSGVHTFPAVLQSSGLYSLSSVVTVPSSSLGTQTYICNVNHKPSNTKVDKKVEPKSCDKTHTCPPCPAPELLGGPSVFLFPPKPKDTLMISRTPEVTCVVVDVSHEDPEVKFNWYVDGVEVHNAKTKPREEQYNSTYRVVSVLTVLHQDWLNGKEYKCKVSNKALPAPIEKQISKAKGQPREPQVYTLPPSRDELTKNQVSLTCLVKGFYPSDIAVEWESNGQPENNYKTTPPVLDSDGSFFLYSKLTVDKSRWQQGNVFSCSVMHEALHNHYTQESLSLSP
light: DIVMTQSPLSLPVTPGEPASISCQASESLVHSNRNTYLHWYLQKPGQSPQLLIYKVSNRFSGVPDRFSGSGSGTDFTLKISRVEAEDVGVYYCSQNTHVPPTFGQGTKVEIERTVAAPSVFIFPPSDEQLKSGTASVVCLLNNFYPREAKVQWKVDNALQSGNSQESVTEQDSKDSTYSLSSTLTLSKADYEKHKVYACEVTHQGLSSPVTKSFNRGEC
notes: also called Ho Ab
As to B2, the Ho/Con_2aR was 102 % of GpH7-B3/GpL16-k0 (=100).

B3: GpH7-B3 variant T335_07I/GpL16-k0 (antibody, human IgG1, kappa)
heavy: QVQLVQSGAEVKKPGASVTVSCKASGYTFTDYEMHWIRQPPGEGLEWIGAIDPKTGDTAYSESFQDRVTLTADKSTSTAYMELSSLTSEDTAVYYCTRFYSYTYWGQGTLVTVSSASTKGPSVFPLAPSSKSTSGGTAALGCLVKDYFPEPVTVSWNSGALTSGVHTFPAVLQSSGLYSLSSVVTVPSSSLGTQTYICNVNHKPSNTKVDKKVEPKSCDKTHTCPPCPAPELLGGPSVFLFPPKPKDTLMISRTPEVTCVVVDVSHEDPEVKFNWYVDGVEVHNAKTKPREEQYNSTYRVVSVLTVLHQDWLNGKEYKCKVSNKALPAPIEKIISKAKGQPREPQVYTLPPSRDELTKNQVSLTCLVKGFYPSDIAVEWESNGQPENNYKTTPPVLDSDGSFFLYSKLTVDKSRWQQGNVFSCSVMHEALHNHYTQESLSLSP
light: DIVMTQSPLSLPVTPGEPASISCQASESLVHSNRNTYLHWYLQKPGQSPQLLIYKVSNRFSGVPDRFSGSGSGTDFTLKISRVEAEDVGVYYCSQNTHVPPTFGQGTKVEIERTVAAPSVFIFPPSDEQLKSGTASVVCLLNNFYPREAKVQWKVDNALQSGNSQESVTEQDSKDSTYSLSSTLTLSKADYEKHKVYACEVTHQGLSSPVTKSFNRGEC
notes: also called Ho Ab
Consider B3, for which the Ho/Con_2aR was 107 % of GpH7-B3/GpL16-k0 (=100).

B4: GpH7-B3 variant T335_05P/GpL16-k0 (antibody, human IgG1, kappa)
heavy: not shown
light: DIVMTQSPLSLPVTPGEPASISCQASESLVHSNRNTYLHWYLQKPGQSPQLLIYKVSNRFSGVPDRFSGSGSGTDFTLKISRVEAEDVGVYYCSQNTHVPPTFGQGTKVEIERTVAAPSVFIFPPSDEQLKSGTASVVCLLNNFYPREAKVQWKVDNALQSGNSQESVTEQDSKDSTYSLSSTLTLSKADYEKHKVYACEVTHQGLSSPVTKSFNRGEC
notes: also called Ho Ab
For B4, the Ho/Con_2aR was 104 % of GpH7-B3/GpL16-k0 (=100).

B5: GpH7-B3 variant V266_06M/GpL16-k0 (antibody, human IgG1, kappa)
heavy: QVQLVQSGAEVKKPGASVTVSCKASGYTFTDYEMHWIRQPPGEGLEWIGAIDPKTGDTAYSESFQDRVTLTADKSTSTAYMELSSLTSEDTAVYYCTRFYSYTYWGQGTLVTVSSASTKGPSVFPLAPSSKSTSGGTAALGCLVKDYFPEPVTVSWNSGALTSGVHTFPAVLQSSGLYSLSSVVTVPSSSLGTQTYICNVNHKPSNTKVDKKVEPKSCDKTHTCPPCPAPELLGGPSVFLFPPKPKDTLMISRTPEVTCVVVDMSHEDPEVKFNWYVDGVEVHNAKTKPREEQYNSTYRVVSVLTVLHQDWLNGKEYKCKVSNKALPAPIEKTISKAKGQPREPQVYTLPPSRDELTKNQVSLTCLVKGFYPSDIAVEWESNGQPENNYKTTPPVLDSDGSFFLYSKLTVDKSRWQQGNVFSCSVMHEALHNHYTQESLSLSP
light: DIVMTQSPLSLPVTPGEPASISCQASESLVHSNRNTYLHWYLQKPGQSPQLLIYKVSNRFSGVPDRFSGSGSGTDFTLKISRVEAEDVGVYYCSQNTHVPPTFGQGTKVEIERTVAAPSVFIFPPSDEQLKSGTASVVCLLNNFYPREAKVQWKVDNALQSGNSQESVTEQDSKDSTYSLSSTLTLSKADYEKHKVYACEVTHQGLSSPVTKSFNRGEC
notes: also called Ho Ab
As to B5, the Ho/Con_2aR is 146 % of GpH7-B3/GpL16-k0 (=100).

B6: GpH7-B3 variant T335_12R/GpL16-k0 (antibody, human IgG1, kappa)
heavy: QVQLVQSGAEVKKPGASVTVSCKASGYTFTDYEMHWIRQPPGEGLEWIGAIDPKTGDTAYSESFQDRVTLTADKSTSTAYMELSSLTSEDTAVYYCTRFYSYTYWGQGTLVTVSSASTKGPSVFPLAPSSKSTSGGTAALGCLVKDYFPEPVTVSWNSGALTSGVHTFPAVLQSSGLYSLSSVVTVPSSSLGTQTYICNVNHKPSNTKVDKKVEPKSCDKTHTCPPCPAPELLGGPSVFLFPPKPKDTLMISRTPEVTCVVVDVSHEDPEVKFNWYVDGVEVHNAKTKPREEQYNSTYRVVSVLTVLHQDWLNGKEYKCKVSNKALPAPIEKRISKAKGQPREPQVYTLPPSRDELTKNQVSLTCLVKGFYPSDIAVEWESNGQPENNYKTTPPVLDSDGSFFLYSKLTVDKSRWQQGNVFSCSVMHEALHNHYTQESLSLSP
light: DIVMTQSPLSLPVTPGEPASISCQASESLVHSNRNTYLHWYLQKPGQSPQLLIYKVSNRFSGVPDRFSGSGSGTDFTLKISRVEAEDVGVYYCSQNTHVPPTFGQGTKVEIERTVAAPSVFIFPPSDEQLKSGTASVVCLLNNFYPREAKVQWKVDNALQSGNSQESVTEQDSKDSTYSLSSTLTLSKADYEKHKVYACEVTHQGLSSPVTKSFNRGEC
notes: also called Ho Ab
On to B6, for which the Ho/Con_2aR was 94 % of GpH7-B3/GpL16-k0 (=100).

B7: GpH7-B3 variant T335_16H/GpL16-k0 (antibody, human IgG1, kappa)
heavy: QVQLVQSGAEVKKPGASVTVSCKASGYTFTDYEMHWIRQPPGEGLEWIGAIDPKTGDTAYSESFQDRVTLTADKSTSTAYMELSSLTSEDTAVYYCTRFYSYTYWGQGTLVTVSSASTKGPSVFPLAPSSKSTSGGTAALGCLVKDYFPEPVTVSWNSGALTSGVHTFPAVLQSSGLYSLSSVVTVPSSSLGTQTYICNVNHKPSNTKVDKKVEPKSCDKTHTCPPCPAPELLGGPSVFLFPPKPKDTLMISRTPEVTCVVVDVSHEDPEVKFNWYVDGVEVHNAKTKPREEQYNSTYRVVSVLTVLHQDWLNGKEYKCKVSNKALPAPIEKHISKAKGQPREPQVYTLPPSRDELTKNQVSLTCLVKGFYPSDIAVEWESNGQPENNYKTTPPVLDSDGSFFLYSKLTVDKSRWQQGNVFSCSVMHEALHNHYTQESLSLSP
light: DIVMTQSPLSLPVTPGEPASISCQASESLVHSNRNTYLHWYLQKPGQSPQLLIYKVSNRFSGVPDRFSGSGSGTDFTLKISRVEAEDVGVYYCSQNTHVPPTFGQGTKVEIERTVAAPSVFIFPPSDEQLKSGTASVVCLLNNFYPREAKVQWKVDNALQSGNSQESVTEQDSKDSTYSLSSTLTLSKADYEKHKVYACEVTHQGLSSPVTKSFNRGEC
notes: also called Ho Ab
B7: the Ho/Con_2aR is 102 % of GpH7-B3/GpL16-k0 (=100).

B8: GpH7-B3 variant T335_10E/GpL16-k0 (antibody, human IgG1, kappa)
heavy: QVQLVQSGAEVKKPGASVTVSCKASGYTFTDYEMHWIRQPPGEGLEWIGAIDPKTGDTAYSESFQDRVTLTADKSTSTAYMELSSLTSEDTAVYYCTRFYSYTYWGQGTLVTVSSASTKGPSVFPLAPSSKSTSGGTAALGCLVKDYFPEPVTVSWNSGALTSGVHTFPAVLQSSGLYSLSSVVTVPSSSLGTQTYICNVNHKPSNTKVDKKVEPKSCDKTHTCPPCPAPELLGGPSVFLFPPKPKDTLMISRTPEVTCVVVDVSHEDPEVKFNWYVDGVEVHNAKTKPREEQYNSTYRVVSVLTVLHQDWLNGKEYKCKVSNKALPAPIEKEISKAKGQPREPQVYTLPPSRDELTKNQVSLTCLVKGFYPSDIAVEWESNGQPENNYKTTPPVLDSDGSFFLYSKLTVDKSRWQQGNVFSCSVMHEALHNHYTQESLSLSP
light: DIVMTQSPLSLPVTPGEPASISCQASESLVHSNRNTYLHWYLQKPGQSPQLLIYKVSNRFSGVPDRFSGSGSGTDFTLKISRVEAEDVGVYYCSQNTHVPPTFGQGTKVEIERTVAAPSVFIFPPSDEQLKSGTASVVCLLNNFYPREAKVQWKVDNALQSGNSQESVTEQDSKDSTYSLSSTLTLSKADYEKHKVYACEVTHQGLSSPVTKSFNRGEC
notes: also called Ho Ab
For B8, the Ho/Con_2aR is 109 % of GpH7-B3/GpL16-k0 (=100).

B9: GpH7-B3 variant Y296_04F/GpL16-k0 (antibody, human IgG1, kappa)
heavy: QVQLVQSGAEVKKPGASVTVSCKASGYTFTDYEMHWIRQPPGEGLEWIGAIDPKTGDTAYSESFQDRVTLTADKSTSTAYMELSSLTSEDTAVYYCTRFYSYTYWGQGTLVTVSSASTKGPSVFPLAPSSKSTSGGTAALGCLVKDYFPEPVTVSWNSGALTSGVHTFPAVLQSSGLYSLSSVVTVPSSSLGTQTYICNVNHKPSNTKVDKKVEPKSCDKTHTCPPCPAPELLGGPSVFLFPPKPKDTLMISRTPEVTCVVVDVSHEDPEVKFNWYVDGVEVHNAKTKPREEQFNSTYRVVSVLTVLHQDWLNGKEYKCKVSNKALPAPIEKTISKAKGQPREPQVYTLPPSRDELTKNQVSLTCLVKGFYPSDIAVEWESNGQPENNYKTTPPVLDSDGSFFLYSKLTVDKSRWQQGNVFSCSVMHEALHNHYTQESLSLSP
light: DIVMTQSPLSLPVTPGEPASISCQASESLVHSNRNTYLHWYLQKPGQSPQLLIYKVSNRFSGVPDRFSGSGSGTDFTLKISRVEAEDVGVYYCSQNTHVPPTFGQGTKVEIERTVAAPSVFIFPPSDEQLKSGTASVVCLLNNFYPREAKVQWKVDNALQSGNSQESVTEQDSKDSTYSLSSTLTLSKADYEKHKVYACEVTHQGLSSPVTKSFNRGEC
notes: also called Ho Ab
Turning to B9, the Ho/Con_2aR was 106 % of GpH7-B3/GpL16-k0 (=100).

B10: GpH7-B3 variant Y296_06M/GpL16-k0 (antibody, human IgG1, kappa)
heavy: not shown
light: DIVMTQSPLSLPVTPGEPASISCQASESLVHSNRNTYLHWYLQKPGQSPQLLIYKVSNRFSGVPDRFSGSGSGTDFTLKISRVEAEDVGVYYCSQNTHVPPTFGQGTKVEIERTVAAPSVFIFPPSDEQLKSGTASVVCLLNNFYPREAKVQWKVDNALQSGNSQESVTEQDSKDSTYSLSSTLTLSKADYEKHKVYACEVTHQGLSSPVTKSFNRGEC
notes: also called Ho Ab
Consider B10, for which the Ho/Con_2aR is 84 % of GpH7-B3/GpL16-k0 (=100).

B11: GpH7-B3 variant T335_15Y/GpL16-k0 (antibody, human IgG1, kappa)
heavy: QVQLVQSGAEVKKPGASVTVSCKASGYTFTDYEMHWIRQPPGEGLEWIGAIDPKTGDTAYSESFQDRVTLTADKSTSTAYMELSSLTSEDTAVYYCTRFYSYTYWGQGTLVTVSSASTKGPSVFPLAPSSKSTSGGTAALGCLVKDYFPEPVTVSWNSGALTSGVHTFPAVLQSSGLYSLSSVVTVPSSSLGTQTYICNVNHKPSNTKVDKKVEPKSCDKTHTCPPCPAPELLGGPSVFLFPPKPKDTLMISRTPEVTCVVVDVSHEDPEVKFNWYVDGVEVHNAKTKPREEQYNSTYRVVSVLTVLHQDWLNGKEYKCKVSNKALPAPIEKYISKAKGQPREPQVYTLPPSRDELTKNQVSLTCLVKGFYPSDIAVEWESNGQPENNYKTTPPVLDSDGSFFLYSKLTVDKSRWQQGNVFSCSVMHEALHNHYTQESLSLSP
light: DIVMTQSPLSLPVTPGEPASISCQASESLVHSNRNTYLHWYLQKPGQSPQLLIYKVSNRFSGVPDRFSGSGSGTDFTLKISRVEAEDVGVYYCSQNTHVPPTFGQGTKVEIERTVAAPSVFIFPPSDEQLKSGTASVVCLLNNFYPREAKVQWKVDNALQSGNSQESVTEQDSKDSTYSLSSTLTLSKADYEKHKVYACEVTHQGLSSPVTKSFNRGEC
notes: also called Ho Ab
For B11, the Ho/Con_2aR was 107 % of GpH7-B3/GpL16-k0 (=100).

B12: GpH7-B3 variant T335_13S/GpL16-k0 (antibody, human IgG1, kappa)
heavy: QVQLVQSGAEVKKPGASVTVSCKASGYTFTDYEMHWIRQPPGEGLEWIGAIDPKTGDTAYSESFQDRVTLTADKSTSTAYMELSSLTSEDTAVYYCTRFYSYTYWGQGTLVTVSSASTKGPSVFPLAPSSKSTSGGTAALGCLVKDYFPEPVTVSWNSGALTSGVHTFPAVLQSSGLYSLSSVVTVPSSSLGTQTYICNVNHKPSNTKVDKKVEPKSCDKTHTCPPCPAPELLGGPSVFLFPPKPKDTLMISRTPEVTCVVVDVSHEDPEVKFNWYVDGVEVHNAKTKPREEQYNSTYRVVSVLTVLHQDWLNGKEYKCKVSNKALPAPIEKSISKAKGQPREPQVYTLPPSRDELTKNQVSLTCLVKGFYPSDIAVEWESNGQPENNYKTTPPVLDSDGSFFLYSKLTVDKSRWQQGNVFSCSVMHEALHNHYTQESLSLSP
light: DIVMTQSPLSLPVTPGEPASISCQASESLVHSNRNTYLHWYLQKPGQSPQLLIYKVSNRFSGVPDRFSGSGSGTDFTLKISRVEAEDVGVYYCSQNTHVPPTFGQGTKVEIERTVAAPSVFIFPPSDEQLKSGTASVVCLLNNFYPREAKVQWKVDNALQSGNSQESVTEQDSKDSTYSLSSTLTLSKADYEKHKVYACEVTHQGLSSPVTKSFNRGEC
notes: also called Ho Ab
In the case of B12, the Ho/Con_2aR was 102 % of GpH7-B3/GpL16-k0 (=100).

B13: GpH7-B3 variant T335_20W/GpL16-k0 (antibody, human IgG1, kappa)
heavy: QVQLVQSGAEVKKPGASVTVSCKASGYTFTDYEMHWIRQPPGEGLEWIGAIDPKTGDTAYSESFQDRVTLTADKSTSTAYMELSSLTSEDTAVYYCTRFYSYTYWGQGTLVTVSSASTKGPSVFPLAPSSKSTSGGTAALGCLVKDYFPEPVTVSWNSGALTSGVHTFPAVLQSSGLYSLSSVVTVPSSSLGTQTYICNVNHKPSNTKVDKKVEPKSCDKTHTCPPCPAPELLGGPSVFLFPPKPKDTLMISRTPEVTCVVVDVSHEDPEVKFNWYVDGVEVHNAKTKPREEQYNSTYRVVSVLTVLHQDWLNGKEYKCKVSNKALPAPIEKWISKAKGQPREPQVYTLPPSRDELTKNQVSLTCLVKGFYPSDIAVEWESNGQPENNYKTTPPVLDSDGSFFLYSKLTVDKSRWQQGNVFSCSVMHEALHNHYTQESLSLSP
light: DIVMTQSPLSLPVTPGEPASISCQASESLVHSNRNTYLHWYLQKPGQSPQLLIYKVSNRFSGVPDRFSGSGSGTDFTLKISRVEAEDVGVYYCSQNTHVPPTFGQGTKVEIERTVAAPSVFIFPPSDEQLKSGTASVVCLLNNFYPREAKVQWKVDNALQSGNSQESVTEQDSKDSTYSLSSTLTLSKADYEKHKVYACEVTHQGLSSPVTKSFNRGEC
notes: also called Ho Ab
For the molecule B13, the Ho/Con_2aR is 101 % of GpH7-B3/GpL16-k0 (=100).

B14: GpH7-B3 variant Y296_09D/GpL16-k0 (antibody, human IgG1, kappa)
heavy: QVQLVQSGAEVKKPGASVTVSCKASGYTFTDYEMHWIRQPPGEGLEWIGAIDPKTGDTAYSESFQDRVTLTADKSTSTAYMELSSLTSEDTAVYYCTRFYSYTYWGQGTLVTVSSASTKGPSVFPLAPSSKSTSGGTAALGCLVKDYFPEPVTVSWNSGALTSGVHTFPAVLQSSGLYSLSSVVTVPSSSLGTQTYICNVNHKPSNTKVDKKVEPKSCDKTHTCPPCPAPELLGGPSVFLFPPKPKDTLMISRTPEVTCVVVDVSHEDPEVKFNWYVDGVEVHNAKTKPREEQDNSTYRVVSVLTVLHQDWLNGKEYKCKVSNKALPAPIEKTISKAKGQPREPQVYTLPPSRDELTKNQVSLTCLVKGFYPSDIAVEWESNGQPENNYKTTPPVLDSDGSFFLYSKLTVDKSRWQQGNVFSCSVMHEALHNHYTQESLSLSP
light: DIVMTQSPLSLPVTPGEPASISCQASESLVHSNRNTYLHWYLQKPGQSPQLLIYKVSNRFSGVPDRFSGSGSGTDFTLKISRVEAEDVGVYYCSQNTHVPPTFGQGTKVEIERTVAAPSVFIFPPSDEQLKSGTASVVCLLNNFYPREAKVQWKVDNALQSGNSQESVTEQDSKDSTYSLSSTLTLSKADYEKHKVYACEVTHQGLSSPVTKSFNRGEC
notes: also called Ho Ab
Regarding B14, the Ho/Con_2aR was 94.5 % of GpH7-B3/GpL16-k0 (=100).

B15: GpH7-B3 variant Y296_07I/GpL16-k0 (antibody, human IgG1, kappa)
heavy: not shown
light: DIVMTQSPLSLPVTPGEPASISCQASESLVHSNRNTYLHWYLQKPGQSPQLLIYKVSNRFSGVPDRFSGSGSGTDFTLKISRVEAEDVGVYYCSQNTHVPPTFGQGTKVEIERTVAAPSVFIFPPSDEQLKSGTASVVCLLNNFYPREAKVQWKVDNALQSGNSQESVTEQDSKDSTYSLSSTLTLSKADYEKHKVYACEVTHQGLSSPVTKSFNRGEC
notes: also called Ho Ab
For the molecule B15, the Ho/Con_2aR is 83.1 % of GpH7-B3/GpL16-k0 (=100).

B16: GpH7-B3 variant T335_18N/GpL16-k0 (antibody, human IgG1, kappa)
heavy: not shown
light: DIVMTQSPLSLPVTPGEPASISCQASESLVHSNRNTYLHWYLQKPGQSPQLLIYKVSNRFSGVPDRFSGSGSGTDFTLKISRVEAEDVGVYYCSQNTHVPPTFGQGTKVEIERTVAAPSVFIFPPSDEQLKSGTASVVCLLNNFYPREAKVQWKVDNALQSGNSQESVTEQDSKDSTYSLSSTLTLSKADYEKHKVYACEVTHQGLSSPVTKSFNRGEC
notes: also called Ho Ab
Turning to B16, the Ho/Con_2aR was 100 % of GpH7-B3/GpL16-k0 (=100).
